Data on 4 molecules can be found in patent publication US20220362330A1, “Compositions and Methods for Increasing Epithelial Barrier Function” (The Board of Trustees of the Leland Stanford Junior …, priority 2019, published 2022).

For data set [1], the system named is genital mucosal barrier. The data set is described as follows: Murine tissue permeability assay, low molecular weight fluorescent molecules given intravaginally. It counts as in vivo, mice. As to the method:
Effects of progestins on genital mucosal barrier permeability were evaluated by intravaginally (ivag) administering 457 Da and 70 KDa-sized fluorescent molecules to mice in estrus or diestrus-stage or after DMPA or LNG treatment. Mice were grouped as follows: untreated in estrus, untreated in diestrus, DMPA treated, or LNG treated. The mice were intravaginally administered a PBS solution containing Lucifer yellow (457 Da) and Texas-Red-conjugated dextran (70 KDa). Animals were euthanized 45 minutes later to assess vaginal tissue penetration of these molecules by confocal microscopy. […] Mucosal permeability was increased moderately by diestrus, but dramatically by DMPA or LNG. Conversely, permeability increases were negligible in estrus-stage mice and mice treated with MePRDL or DMPA and RU486. This indicates exogenous progestins increase genital mucosal permeability.
To evaluate mucosal permeability to low molecular weight molecules, indicated groups of mice were sedated, and 10 μL of a PBS solution containing 62.5 μg of dextran Texas-Red® (DR) (MW=70,000 Da) and 50 μg of Lucifer yellow CH, lithium salt (LY) (MW=457.2 Da) (both from Life Technologies) administered intravaginally. 45 minutes later, mice were euthanized, and excised vaginal tissue fixed in formaldehyde. Fixed tissue was embedded in agarose, and 200-300 μm specimens were sectioned with a vibratome. After counterstaining with 4,6-diamidino-2-phenylindole (DAPI), confocal microscopy images were acquired by sequential scanning to prevent fluorescence crossover.

Another data set deals with DSG1 protein. The data set is described as follows: DSG1 protein levels in vaginal tissue, immunofluorescent staining and confocal microscopy. The data set is classed as in vivo, mice. Conditions: for levels of DSG1 protein in vaginal tissue: His-tagged ephrins 1.5 ug/30 uL ivag; for levels of DSG1 protein in vaginal tissue / DSG1 protein levels in vaginal tissue: 24 h; for DSG1 protein levels in vaginal tissue: OVX mice, single ivag dose. As to the method:
Excised mouse vaginas were formaldehyde fixed and paraffin embedded (FFPE), and 10 μm sections mounted on glass slides and de-paraffinized by sequential immersion in 100% xylene, 100% ethanol, 96% ethanol, and sterile DEPC-treated water. Antigen retrieval was performed using 10 mM sodium citrate buffer (pH 6.0) containing 0.05% Tween 20 (both Sigma-Aldrich) (20 minutes at 95° C.). After 3 PBS washes, sections were incubated overnight in 10% normal goat serum (Abcam, Cambridge Mass.) at 4° C., then incubated for 1 h at ambient temperate with rabbit anti-desmoglein-1 (clone EPR6766(B)) antibody, washed and incubated for 1 h with AlexaFluor® 488-labeled goat anti-rabbit IgG (antibodies from Abcam) (all antibodies were diluted in PBS with 1% BSA and 0.05% Tween 20). Sections were stained with DAPI and evaluated for levels of DSG1 protein (defined by calculating pixel numbers per 100 μm^2) using confocal microscopy and ImageJ software.

The test system of a further data set is desmoglein-1a (DSG1a). The data set is described as follows: qRT-PCR of Dsg1a gene expression in vaginal tissue. The data set is classed as in vivo, mice. Conditions: for relative expression of Dsg1a: DMPA-treated mice, His-tagged ephrins 1.5 ug/30 uL ivag; for relative expression of Dsg1a / Dsg1a gene expression in vaginal tissue: 24 h; for Dsg1a gene expression in vaginal tissue: OVX mice, single ivag dose. As to the method: (§1) To define progestin-mediated changes in mucosal permeability, vaginal tissue from mice in estrus, diestrus, or after DMPA or LNG treatment was used to measure expression of the desmosomal cadherins desmoglein-1a (DSG1a) and desmocollin-1 (DSC1).
(§2) Human ectocervical and murine vaginal tissues were immediately immersed in 1 mL of RNAlater® (Qiagen), stored for 24 h at 4° C., and stored long-term at −80° C. RNA isolated using the RNeasy Lipid Tissue Kit (Qiagen) using manufacturer's instructions was re-suspended in nuclease-free water and quantified using a NanoDrop spectrophotometer (Thermo Scientific). The following mouse primers were utilized: desmocollin 1 (Mm00496525_ml), desmoglein-1α (Mm00809994_s1), ephrinA3 (Mm01212723_g1) and pyruvate carboxylase (Mm00500992_ml) as housekeeping reference gene (all from Thermo Scientific). These human primers were used: desmoglein-1 (Hs00355084_m1) and glucose-6-phosphate isomerase (Hs00976711_m1) as a housekeeping reference gene. To define relative gene expression, 100 ng of RNA was mixed with TaqMan® RNA-to-Ct™ 1-Step Kit and adequate primer (final volume of 10 μL/well) using manufacturer's instructions (Life Technologies). qRT-PCR was performed using a Quantstudio3 Thermal Cycler, and data analyzed via Quanstudio Software (Applied Biosystems).
(Quantitative PCR measures a nucleic acid by following its amplification.)

The subject of another data set is desmocollin-1 (DSC1). The data set is described as follows: qRT-PCR of Dsc1 gene expression in vaginal tissue. It counts as in vivo, mice. As to the method:
as §1, §2

The test system of data set [2] is claudin-1, occludin, and tight junction protein 1. Kind of data set: Gene expression of other cell-cell adhesion molecules in vaginal tissue. It counts as in vivo, mice.
The test system of the next data set is HSV-2. Kind of data set: Lethal genital HSV-2 infection. The data set is classed as in vivo. Conditions: DMPA-treated mice. Here is the method: Mice were sedated with xylazine (Lloyd Laboratories, Shenandoah Iowa) and ketamine hydrochloride (JHP Pharmaceuticals, LLC Rochester Mich.), and intravaginally infected with 10^4 plaque-forming units (pfu) of WT HSV-2 333 in 10 μL of RPMI. Mouse mortality was evaluated daily for 15 days.

For data set [3], the system named is genital mucosal barrier. Kind of data set: Murine tissue permeability assay, low molecular weight fluorescent molecules given intravaginally. To be noted: OVX mice, single dose, vs untreated OVX mice. It counts as in vivo, mice.
The next data set has as its system HSV-1. Kind of data set: Genital HSV-1 GFP infection, virus replication in vaginal epithelium. It counts as in vivo, mice. To be noted: DMPA-treated mice. Here is the method:
Estrus-stage or DMPA-treated mice were intravaginally administered vehicle or recombinant mouse Fc-EFNA3 at 1.5 ug/30 uL 24 h prior to genital infection with 3×10^3 PFU HSV-1q GFP (fluorescent virus). Vaginal tissue was recovered 24 h after infection and evaluated for HSV-1 replication in the vaginal epithelium using confocal microscopy. […] To evaluate if treatment with rm-EphrinA3 protects mice from lethal HSV-2 infection, DMPA-treated mice were intravaginally administered Fc- or His-tagged versions of the rm-protein prior to infection. […] Because the microarray data indicated EphrinA1, EphrinA2, EphrinA3, EphrinA4, and EphrinA5 were upstream regulators of Dsg1 and Dsc1 expression in the mouse vagina, we hypothesized that capacity of EphrinA3 to increase cell-cell adhesion molecule expression may be shared by other members of the EphrinA family.

[4] abbreviates: progestin-treated mice vs mice in estrus.

Regarding `C#C[C@]1(O)CC[C@H]2[C@@H]3CCC4=CC(=O)CC[C@@H]4[C@H]3CC[C@@]21CC` [LNG, reference compound], the “penetration of the 457 Da molecules into vaginal tissue” value with genital mucosal barrier [1] (confocal images, 45 minutes after ivag administration) is recorded as “greatest penetration”. For the same molecule, the Mucosal permeability increase entry in the data set on genital mucosal barrier [1] (mice, ivag Lucifer yellow (457 Da) and Texas-Red dextran (70 KDa), 45 minutes, confocal microscopy) is listed as “dramatically”. For the same molecule, in the data set with DSG1 protein (setting [4]), the “DSG1a protein expression in vaginal tissue” value was “significantly reduced”. For the same molecule, the “DSG1a gene expression in vaginal tissue” value in the data set with desmoglein-1a (DSG1a) (setting [4]) is listed as “decrease gene expression levels”. In the data set with desmocollin-1 (DSC1) (setting [4]), the “DSC1 gene expression in vaginal tissue” value is on record as “decrease gene expression levels”. Further, the “gene expression of claudin-1, occludin, and tight junction protein 1” value in data set [2] is given as “did not alter”.

B1: EphrinA3: mouse recombinant EphrinA3; Fc- or His-tagged version not always specified at the place (protein, UniProt O08545 23-206, looked up)
Ephrin-A3: QGPGGALGNRHAVYWNSSNQHLRREGYTVQVNVNDYLDIYCPHYNSSGPGGGAEQYVLYMVNLSGYRTCNASQGSKRWECNRQHASHSPIKFSEKFQRYSAFSLGYEFHAGQEYYYISTPTHNLHWKCLRMKVFVCCASTSHSGEKPVPTLPQFTMGPNVKINVLEDFEGENPQVPKLEKSISG
In the case of B1, the “genital mucosal barrier function / permeability to LMW fluorescent molecules” value in the data set with genital mucosal barrier [1] (DMPA-treated mice, one ivag dose of 1.5 ug/30 uL) is recorded as “enhanced genital mucosal barrier function”. Besides, the reduction of mortality result in the data set on HSV-2 (one ivag dose (Fc- or His-tagged) prior to lethal HSV-2 infection, compared to DMPA alone) is recorded as “approximately 25%”. In addition, the “genital mucosal barrier function (penetration of lucifer yellow, 457 Da)” value in the data set on genital mucosal barrier [3] is listed as “improved function of the genital mucosal barrier”; in the data set on genital mucosal barrier [3] (listed as EFNA3), “enhanced genital mucosal barrier function”. For the same molecule, the “levels of DSG1 protein in vaginal tissue” value in the data set with DSG1 protein (DMPA-treated mice) is recorded as “similarly increase”; in the data set on DSG1 protein (DMPA-treated mice, listed as EFNA3), “increased levels of DSG1 protein”. The “DSG1 protein levels in vaginal tissue” value is “greatly improved” in the data set on DSG1 protein and “increases” with DSG1 protein (listed as EFNA3). Besides, in the data set with desmoglein-1a (DSG1a), the “relative expression of Dsg1a” value was “increased relative expression”. Moreover, the “Dsg1a gene expression in vaginal tissue” value in the data set with desmoglein-1a (DSG1a) was “greatly improved”; with desmoglein-1a (DSG1a) (listed as EFNA3) it was “increases”. For the same molecule, in the data set on desmocollin-1 (DSC1) (OVX mice, single ivag dose, 24 h), the “Dsc1 gene expression in vaginal tissue” value is on record as “increases”. In the data set on HSV-1, the “HSV-1 replication in mouse genital tissue” value is “reduced”.

B2: His-EFNA3: Ephrin A3 Protein, Mouse, Recombinant (His Tag), SEQ ID NO: 15 (protein, UniProt P52797 23-214, looked up)
Ephrin-A3: QGPGGALGNRHAVYWNSSNQHLRREGYTVQVNVNDYLDIYCPHYNSSGVGPGAGPGPGGGAEQYVLYMVSRNGYRTCNASQGFKRWECNRPHAPHSPIKFSEKFQRYSAFSLGYEFHAGHEYYYISTPTHNLHWKCLRMKVFVCCASTSHSGEKPVPTLPQFTMGPNVKINVLEDFEGENPQVPKLEKSISG
modifications: His tag
Take B2: the “survival after genital HSV-2 infection” value in the data set on HSV-2 (10^4 pfu of HSV-2) is “improves the survival”. For the same molecule, the “levels of DSG1 protein in genital tissue” value with DSG1 protein (DMPA-treated mice, ivag in 10 μL of PBS, 24 hours) is given as “increased levels of DSG1 protein”.

B3: EphrinA2: Ephrin A2/EFNA2 Protein, Mouse, Recombinant (His Tag), SEQ ID NO: 17 (protein)
chain: MAPAQRPLLPLLLLLLPLRARNEDPARANADRYAVYWNRSNPRFQVSAVGDGGGYTVEVSINDYLDIYCPHYGAPLPPAERMERYILYMVNGEGHASCDHRQRGFKRWECNRPAAPGGPLKFSEKFQLFTPFSLGFEFRPGHEYYYISATPPNLVDRPCLRLKVYVRPTNETLYEAPEPIFTSNHHHHHH
modifications: His tag
As to B3, the “levels of DSG1 protein in vaginal tissue” value in the data set on DSG1 protein (DMPA-treated mice) was “similarly increase”; in the data set on DSG1 protein (DMPA-treated mice, listed as EFNA2) it was “increased levels of DSG1 protein”. In addition, the “relative expression of Dsg1a” value with desmoglein-1a (DSG1a) is reported as “increased relative expression”.
